Tests used:
2442 CXCR2/CXCR4 chimera [1] = test: FACS on 293T cells expressing CXCR4 variants
[2] = molecular target: 2444b CXCR2/CXCR4 chimera (human) (UniProt P25025); test: FACS on 293T cells expressing CXCR4 variants
4442 CXCR2/CXCR4 chimera [3] = test: FACS on 293T cells expressing CXCR4 variants
[4] = molecular target: human CXCR4 (wild type) (human) (UniProt P61073); test: FACS on 293T cells expressing CXCR4 variants
ΔN25-CXCR4 (human) = ΔN25-CXCR4 (human) (UniProt P61073); test: FACS on 293T cells expressing CXCR4 variants
ΔN31-CXCR4 (human) = ΔN31-CXCR4 (human) (UniProt P61073); test: FACS on 293T cells expressing CXCR4 variants
2242 CXCR2/CXCR4 chimera = test: flow cytometry, scFv-Fc on transfected 293T cells, FITC anti-human IgG
2442 CXCR2/CXCR4 chimera [5] = test: as above
[6] = molecular target: 2444b CXCR2/CXCR4 chimera (human) (UniProt P25025); test: as above
4442 CXCR2/CXCR4 chimera [7] = test: as above
CXCR2 = CXCR2 (UniProt P25025); test: as above
[8] = molecular target: human CXCR4 (wild type) (human) (UniProt P61073); test: as above
mouse CXCR4 (mouse) = mouse CXCR4 (mouse) (UniProt P70658); test: as above
[9] = molecular target: rhesus macaque monkey CXCR4 (rhesus macaque) (UniProt P79394); test: as above
Δ-X4 = test: as above
[10] = molecular target: rhesus macaque monkey CXCR4 (rhesus macaque) (UniProt P79394); test: flow cytometry, scFv-Fc on transfected 293T cells

Sequence of human CXCR4 (wild type) (human) (P61073 whole entry): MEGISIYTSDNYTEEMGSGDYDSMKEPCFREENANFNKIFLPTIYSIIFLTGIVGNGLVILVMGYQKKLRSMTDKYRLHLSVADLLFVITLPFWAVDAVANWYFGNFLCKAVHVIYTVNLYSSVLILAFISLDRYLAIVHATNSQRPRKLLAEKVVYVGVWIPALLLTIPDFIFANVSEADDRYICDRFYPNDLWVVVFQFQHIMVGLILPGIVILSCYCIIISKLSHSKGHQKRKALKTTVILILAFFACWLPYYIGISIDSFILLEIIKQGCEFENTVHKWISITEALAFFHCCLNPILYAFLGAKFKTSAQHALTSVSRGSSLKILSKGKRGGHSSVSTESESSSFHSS
Sequence of CXCR2 (P25025 whole entry): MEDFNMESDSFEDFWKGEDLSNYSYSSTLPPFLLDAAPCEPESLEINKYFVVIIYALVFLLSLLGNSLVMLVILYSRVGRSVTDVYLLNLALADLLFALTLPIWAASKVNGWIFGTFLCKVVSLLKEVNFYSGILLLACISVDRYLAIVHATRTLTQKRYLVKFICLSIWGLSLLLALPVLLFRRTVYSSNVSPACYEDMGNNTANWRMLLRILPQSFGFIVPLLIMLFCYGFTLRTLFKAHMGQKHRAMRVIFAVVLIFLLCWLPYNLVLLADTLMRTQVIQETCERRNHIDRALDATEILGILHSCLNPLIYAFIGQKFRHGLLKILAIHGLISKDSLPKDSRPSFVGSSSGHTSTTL
Sequence of 2444b CXCR2/CXCR4 chimera (human) (P25025 other isoform, or with tags, fused parts or gaps mutant limits assumed): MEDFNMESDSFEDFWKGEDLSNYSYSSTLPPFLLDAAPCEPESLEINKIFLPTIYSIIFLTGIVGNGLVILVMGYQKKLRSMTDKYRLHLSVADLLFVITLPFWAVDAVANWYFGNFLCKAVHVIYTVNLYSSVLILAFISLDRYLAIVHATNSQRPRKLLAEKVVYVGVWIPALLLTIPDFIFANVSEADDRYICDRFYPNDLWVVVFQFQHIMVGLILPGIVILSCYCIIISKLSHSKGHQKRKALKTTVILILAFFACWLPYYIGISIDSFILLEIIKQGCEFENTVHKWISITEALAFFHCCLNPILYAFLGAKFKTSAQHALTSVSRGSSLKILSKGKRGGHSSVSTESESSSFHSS
Sequence of rhesus macaque monkey CXCR4 (rhesus macaque) (P79394 whole entry): as the sequence (P61073 whole entry) above, with M24I, N35H, K38R, R146K, N176S, V214D counted along it
Sequence of mouse CXCR4 (mouse) (P70658 whole entry): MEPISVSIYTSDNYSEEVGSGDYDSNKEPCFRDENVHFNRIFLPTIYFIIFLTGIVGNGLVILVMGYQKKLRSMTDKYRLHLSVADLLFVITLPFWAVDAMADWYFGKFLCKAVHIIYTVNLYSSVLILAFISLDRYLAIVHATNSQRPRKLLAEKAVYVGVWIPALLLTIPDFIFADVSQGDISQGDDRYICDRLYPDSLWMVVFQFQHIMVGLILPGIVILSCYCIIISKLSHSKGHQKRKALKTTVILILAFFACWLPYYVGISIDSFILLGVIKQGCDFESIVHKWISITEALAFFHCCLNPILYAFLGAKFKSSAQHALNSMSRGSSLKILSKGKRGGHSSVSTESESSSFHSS

binding (+%) (2442 CXCR2/CXCR4 chimera [1]) [%] | binding (+%) [2] [%] | binding (+%) (4442 CXCR2/CXCR4 chimera [3]) [%] | binding (+%) [4] [%] | binding (+%) (ΔN25-CXCR4 (human)) [%] | binding (+%) (ΔN31-CXCR4 (human)) [%] | reactivity (MFI of chimeric receptor/MFI of wild type CXCR4 x 100%) (2242 CXCR2/CXCR4 chimera) [%] | reactivity (MFI of chimeric receptor/MFI of wild type CXCR4 x 100%) (2442 CXCR2/CXCR4 chimera [5]) [%] | reactivity (MFI of chimeric receptor/MFI of wild type CXCR4 x 100%) [6] [%] | reactivity (MFI of chimeric receptor/MFI of wild type CXCR4 x 100%) (4442 CXCR2/CXCR4 chimera [7]) [%] | reactivity (MFI of chimeric receptor/MFI of wild type CXCR4 x 100%) (CXCR2) [%] | reactivity (MFI of chimeric receptor/MFI of wild type CXCR4 x 100%) [8] [%] | reactivity (MFI of chimeric receptor/MFI of wild type CXCR4 x 100%) (mouse CXCR4 (mouse)) [%] | reactivity (MFI of chimeric receptor/MFI of wild type CXCR4 x 100%) [9] [%] | reactivity (MFI of chimeric receptor/MFI of wild type CXCR4 x 100%) (Δ-X4) [%] | decrease of binding compared to human CXCR4 [10] [%] | Binder
-1.2 | -6.2 | 89.1 | 100 | -6.3 | -7 | 1.2 | 4.5 | 8.3 | 61 | 4.7 | 100 | 3.6 | 98.3 | -1.6 | – | 2N-Fc (Fc fusion, part only; not given: linker and human IgG1 hinge-Fc, not shown: another chain or arm of the molecule; a dimerising Fc or GST; small tags and cut ends) VH: EVQLVESGGGVVQPGRSLRLSCAASGFTFSSYGMHWVRQAPGKGLEWVAVISYDGSNKYYADSVKGRFTISRDNSKNTLYLQVSSLRAEDTAVYYCVRDLVAAAGTAFDIWGQGTTVTVSS VL: QPVLTQPRSVSGSPGQSVTISCTGTISDVGGHNFVSWYQQNPGKAPKLIIFEVTKRPAGVPDRFSGSKSGNTASLTVSGLQAEDEGEYYCSSYGGSNDVIFGGGTKLSVL
-3.4 | 2.2 | -0.4 | 100 | 60 | 12.8 | 1 | 3.7 | 4.7 | 1.4 | – | 100 | – | 41.9 | 16.6 | 60 | 6R-Fc (Fc fusion, part only; not given: VH-VL linker, hinge and IgG1 Fc, not shown: another chain or arm of the molecule; a dimerising Fc or GST; small tags and cut ends) VH: QVQLQQSGPGLVKPSQTLSLTCAVSGDSVSSNFVAWNWIRQSPSRGLEWLGRTYYRSRWYNDYAVSVQSRIRVTPDTSKNQFSLHLDSVTPEDTAVYYCARGQHSGFDFWGQGTLVTVSS VL: QSVLTQPPSVSKGLRQTATLTCTGNSNNVGNQGAAWLQQHQGHPPKLLSYRNNNRPSGISERFSASRSGNTASLTITGLQPEDEADYYCSAWDNRLKTYVFGTGGKVTVL
– | – | – | – | – | – | 0.3 | 0.7 | 0.7 | 15.5 | -0.52 | 100 | 2.1 | 103 | 3.1 | – | 33-Fc (Fc fusion, part only; not given: linker and human IgG1 hinge-Fc, not shown: another chain or arm of the molecule; a dimerising Fc or GST; small tags and cut ends) VH: QVTLKESGGGVVQPGRSLRLSCAASGFTFTNYGLHWVRQAPGKGLEWVAVISHDGTKKYYADSVKGRFTISRDSSENTLYLQMNSLRPEDSALYYCARDGGYCSGGRCYSYGMDVWGQGTTVTVSS VL: QSVLTQPPSASGTPGQRVTISCSGSRSNIGSNTVNWYQQLPGTAPKLLIYTNNQRPSGVPDRFSGSKSGTSASLAITGLQAEDEADYYCLSFDSSLTSYVFGTGTKVTVL
– | – | – | – | 13 | 9 | – | – | – | – | – | – | – | – | – | – | 33-IgG1 (antibody, V domains shown) VH: QVTLKESGGGVVQPGRSLRLSCAASGFTFTNYGLHWVRQAPGKGLEWVAVISHDGTKKYYADSVKGRFTISRDSSENTLYLQMNSLRPEDSALYYCARDGGYCSGGRCYSYGMDVWGQGTTVTVSS VL: QSVLTQPPSASGTPGQRVTISCSGSRSNIGSNTVNWYQQLPGTAPKLLIYTNNQRPSGVPDRFSGSKSGTSASLAITGLQAEDEADYYCLSFDSSLTSYVFGTGTKVTVLG
– | – | – | – | – | – | 11.6 | 7.6 | 12.9 | 27.9 | 4.1 | 100 | – | 77.5 | 9.6 | – | 20-Fc (Fc fusion, part only; not given: linker and human IgG1 hinge-Fc, not shown: another chain or arm of the molecule; a dimerising Fc or GST; small tags and cut ends) VH: EVQLVQSGGGLVQPGGSLRLSCAASGFTFSSYAMSWVRQAPGKGLEWVANIKQDGSEKYYVDSVKGRFTISRDNAKNSLYLQMNSLRAEDTAVYYCARDQVSGITIFGGKWRSPDVWGQGTTVTVSS VL: SSELTQDPAVSVALGQTVRITCQGDSLRSYYASWYQQKPGQAPVLVIYGKNNRPSGIPDRFSGSKSHNTAYLTITGAQAEDEADYFCNSRSGSQRVFGGGTKLTVL
